Reference: doi:10.1101/2024.10.06.616194

Measured: catalytic (cyclization) activity of the GpeC mutant relative to the wild type

WFWMLYHHM [SGpeA2 (minimal 9-mer substrate)]
> 50%: GpeC R160A | GpeC R152A | GpeC Y163A | GpeC F214A
